From publication PMC8776730 (Nature Communications, 2022)

Assays:
[1] = mouse, in vivo, iv, 16 mg/kg
MIA PaCa-2 cells = test: Cellular imaging (CLSM) of FITC-labelled molecules; type: cell-based; settings: FITC-labelled molecules, MIA PaCa-2 cells, 1 h incubation, CLSM
Description: To further confirm this hypothesis, the M1 and M2 were equally labeled by FITC for cell imaging (Fig. 5b). To simulate the dynamic physiological condition, the cell culture medium was replaced every 15 min. After 1 h of incubation with M1 and M2 at the same molecule molar concentration, there occurred significant differences between the two molecules (Fig. 5c). […] The huge difference can be explained by the fact that the secondary assembly rate broke the balance between the targeted ligand and receptor, and thus tended to a stable assembly interaction. The retention efficiency depended on the assembly rate constant Ka. Meanwhile, the rapid dynamic assembly of BIVA probe in situ around the cell membrane, and contributed to the efficient formation and retention of nanofibers on the cell profile. When the incubation time was delayed up to 2 h, some components could be endocytosed into the cells, but most of them were found on the membranes (Supplementary Fig. 18). […] Then, the isolated cells were collected and lysed, the extracted cell membrane fragments were stained with ThT. […] In order to verify the influence of the addition of the targeting module of the probe molecules, we explored the imaging of R-M1 and M4 on cells.
Fig. 5 The BIVA effect with enhanced targeting to pancreatic tumor cell for boundaries imaging. a Illustration of BIVA effect: active targeting and assembly/aggregate induced retention (AIR) effect. b Chemical structure of FITC labeling. c 2D and 3D confocal images of M2 with active targeting property and M1 with BIVA effect on MIA PaCa-2 cells after incubation for 1 h. d The distribution of M1 on MIA PaCa-2 cell. e ThT staining of the lysed cell membrane of MIA PaCa-2. f, Illustration of migration inhibition after treated by BIVA probe. g The image of the migrated cells after treatment of PBS (blank), M2, M4, and M1. Scale bar: 100 μm. h The pie diagram of quantitative statistical calculation of the migrated cells (blue) in different groups. The blank control was set as 100% migrated cells.
MIA PaCa-2 cells were digested with trypsin, counted with cell counting plate, diluted to 1 × 10^4 with DMEM medium, and 1 mL to 1 cm diameter confocal microscope dish was taken. The cells were incubated in […] atmosphere for 24 h. The medium containing M1 and M2 (50 μM) was replaced and incubated with the cells for 2 h. The cells were washed with PBS for 3 times. CLSM (Zeiss 710) was used to image cells under 40 × objective, excitation = 488 nm, and emission >520 nm.
Supplementary Fig. 19 ∣ CLSM images of Miapaca-2 cells treated with different molecules or M1 under different conditions. […]

mPEG-GPAKLVFFGC(IR783)GRGD [M1]
blood circulation half-life (t1/2) [1]: 1.83 ± 0.05 h | fluorescence signal on the cell membrane (MIA PaCa-2 cells): higher fluorescence retention rate on the cell membrane
